Results taken from PMC2794200.

Target: GST-Trs33, bacterially expressed (S. cerevisiae) (UniProt Q99394)
Assay: pull-down

Chain of UniProt Q99394 (Q99394 whole entry): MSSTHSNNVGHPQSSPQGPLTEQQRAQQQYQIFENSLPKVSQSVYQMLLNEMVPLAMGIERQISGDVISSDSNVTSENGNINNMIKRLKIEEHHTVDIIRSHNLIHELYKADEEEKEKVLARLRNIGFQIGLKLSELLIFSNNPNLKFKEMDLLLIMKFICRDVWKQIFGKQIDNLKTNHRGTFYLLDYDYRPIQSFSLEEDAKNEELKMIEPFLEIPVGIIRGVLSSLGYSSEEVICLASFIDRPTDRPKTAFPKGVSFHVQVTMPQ

## Trs130-HA, bacterially expressed (from UniProt Q03660 1-1102) (natural protein)
  percent co-precipitated: 0.5%
